Values of other authors in PMC7532970.
Like-named read-outs stand apart in the source and are kept apart here. Each block holds one substance with its values, some of them ahead of it.

What was measured:
CBP KIX (Homo sapiens) [1] = molecular target: CBP KIX (Homo sapiens) (UniProt Q92793)
CBP KIX (Homo sapiens) [2] = molecular target: CBP KIX (Homo sapiens) (UniProt Q92793); remark: listed apart in the source
CBP KIX (Homo sapiens) [3] = molecular target: CBP KIX (Homo sapiens) (UniProt Q92793); remark: listed apart in the source

CBP KIX (Homo sapiens), sequence (Q92793 584-669): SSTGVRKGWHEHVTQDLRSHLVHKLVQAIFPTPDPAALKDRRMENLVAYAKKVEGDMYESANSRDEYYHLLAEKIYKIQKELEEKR
CREB, sequence (P16220 whole entry): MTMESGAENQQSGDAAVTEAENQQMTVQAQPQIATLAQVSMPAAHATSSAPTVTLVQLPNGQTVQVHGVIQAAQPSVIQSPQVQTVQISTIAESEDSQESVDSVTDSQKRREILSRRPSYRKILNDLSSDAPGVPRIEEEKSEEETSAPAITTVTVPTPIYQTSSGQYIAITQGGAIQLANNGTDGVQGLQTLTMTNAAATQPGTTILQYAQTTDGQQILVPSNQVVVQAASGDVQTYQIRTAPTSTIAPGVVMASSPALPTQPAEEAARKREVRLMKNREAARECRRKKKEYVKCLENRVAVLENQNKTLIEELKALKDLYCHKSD
c-myb, sequence (P10242 whole entry): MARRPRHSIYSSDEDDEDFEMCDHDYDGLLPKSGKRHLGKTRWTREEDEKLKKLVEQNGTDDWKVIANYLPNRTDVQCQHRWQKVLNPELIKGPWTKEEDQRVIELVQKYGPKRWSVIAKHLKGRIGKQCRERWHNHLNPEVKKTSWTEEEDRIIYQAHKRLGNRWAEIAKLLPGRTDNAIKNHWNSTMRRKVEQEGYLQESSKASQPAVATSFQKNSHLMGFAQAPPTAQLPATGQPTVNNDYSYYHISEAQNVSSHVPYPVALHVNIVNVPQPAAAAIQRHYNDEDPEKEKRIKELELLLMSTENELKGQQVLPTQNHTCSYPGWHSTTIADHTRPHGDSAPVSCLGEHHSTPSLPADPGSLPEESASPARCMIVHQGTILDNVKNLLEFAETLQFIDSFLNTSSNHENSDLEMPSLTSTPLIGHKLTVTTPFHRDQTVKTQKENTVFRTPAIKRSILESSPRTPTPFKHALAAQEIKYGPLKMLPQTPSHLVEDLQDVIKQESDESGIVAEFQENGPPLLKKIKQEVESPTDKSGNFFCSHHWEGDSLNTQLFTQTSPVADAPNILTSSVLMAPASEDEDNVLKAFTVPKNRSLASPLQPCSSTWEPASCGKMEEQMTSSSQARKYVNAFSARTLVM

Kd (CBP KIX (Homo sapiens) [1]): 0.7 µM
Substance: CREB (from UniProt P16220)

Kd (CBP KIX (Homo sapiens) [2]): > 90 µM
Substance: p53 (from UniProt P04637)

Kd (CBP KIX (Homo sapiens) [3]): 15 µM
Substance: c-myb (from UniProt P10242)
